Laboratory results from doi:10.1101/2023.11.05.564366v1.

Columns and labels:
Experiment in all cases: purified protein
Settings in all cases: 50 °C, 1100 rpm
purified protein [1] = substrate: O=C(OCCO)c1ccc(C(=O)OCCO)cc1
purified protein [2] = substrate: O=C(O)c1ccc(C(=O)OCCOC(=O)c2ccc(C(=O)OCCOC(=O)c3ccc(C(=O)O)cc3)cc2)cc1
purified protein [3] = substrate: O=C(O)c1ccc(C(=O)OCCOC(=O)c2ccc(C(=O)OCCO)cc2)cc1
purified protein [4] = substrate: O=C(O)c1ccc(C(=O)OCCO)cc1

B1: LCCICCG (unidentified prokaryotic organism; D238C/F243I/S283C/Y127G) (protein)
chain: QSNPYQRGPNPTRSALTADGPFSVATYTVSRLSVSGFGGGVIYYPTGTSLTFGGIAMSPGYTADASSLAWLGRRLASHGFVVLVINTNSRFDGPDSRASQLSAALNYLRTSSPSAVRARLDANRLAVAGHSMGGGGTLRIAEQNPSLKAAVPLTPWHTDKTFNTSVPVLIVGAEADTVAPVSQHAIPFYQNLPSTTPKVYVELCNASHIAPNSNNAAISVYTISWMKLWVDNDTRYRQFLCNVNDPALCDFRTNNRHCQ
Km (purified protein [1]): 0.75 ± 0.27 mM | kcat (purified protein [1]): 8.2 ± 1.22 s⁻¹ | Km (purified protein [2]): 0.67 ± 0.61 mM | kcat (purified protein [2]): 331 ± 142 s⁻¹ | Km (purified protein [3]): 0.21 ± 0.091 mM | kcat (purified protein [3]): 9.1 ± 2.71 s⁻¹ | Km (purified protein [4]): 0.92 ± 0.22 mM | kcat (purified protein [4]): 0.058 ± 0.0024 s⁻¹
